First the molecules themselves.
B1: Complement factor H (Homo sapiens), P08603 (parent)
chain: MRLLAKIICLMLWAICVAEDCNELPPRRNTEILTGSWSDQTYPEGTQAIYKCRPGYRSLGNVIMVCRKGEWVALNPLRKCQKRPCGHPGDTPFGTFTLTGGNVFEYGVKAVYTCNEGYQLLGEINYRECDTDGWTNDIPICEVVKCLPVTAPENGKIVSSAMEPDREYHFGQAVRFVCNSGYKIEGDEEMHCSDDGFWSKEKPKCVEISCKSPDVINGSPISQKIIYKENERFQYKCNMGYEYSERGDAVCTESGWRPLPSCEEKSCDNPYIPNGDYSPLRIKHRTGDEITYQCRNGFYPATRGNTAKCTSTGWIPAPRCTLKPCDYPDIKHGGLYHENMRRPYFPVAVGKYYSYYCDEHFETPSGSYWDHIHCTQDGWSPAVPCLRKCYFPYLENGYNQNYGRKFVQGKSIDVACHPGYALPKAQTTVTCMENGWSPTPRCIRVKTCSKSSIDIENGFISESQYTYALKEKAKYQCKLGYVTADGETSGSITCGKDGWSAQPTCIKSCDIPVFMNARTKNDFTWFKLNDTLDYECHDGYESNTGSTTGSIVCGYNGWSDLPICYERECELPKIDVHLVPDRKKDQYKVGEVLKFSCKPGFTIVGPNSVQCYHFGLSPDLPICKEQVQSCGPPPELLNGNVKEKTKEEYGHSEVVEYYCNPRFLMKGPNKIQCVDGEWTTLPVCIVEESTCGDIPELEHGWAQLSSPPYYYGDSVEFNCSESFTMIGHRSITCIHGVWTQLPQCVAIDKLKKCKSSNLIILEEHLKNKKEFDHNSNIRYRCRGKEGWIHTVCINGRWDPEVNCSMAQIQLCPPPPQIPNSHNMTTTLNYRDGEKVSVLCQENYLIQEGEEITCKDGRWQSIPLCVEKIPCSQPPQIEHGTINSSRSSQESYAHGTKLSYTCEGGFRISEENETTCYMGKWSSPPQCEGLPCKSPPEISHGVVAHMSDSYQYGEEVTYKCFEGFGIDGPAIAKCLGEKWSHPPSCIKTDCLSLPSFENAIPMGEKKDVYKAGEQVTYTCATYYKMDGASNVTCINSRWTGRPTCRDTSCVNPPTVQNAYIVSRQMSKYPSGERVRYQCRSPYEMFGDEEVMCLNGNWTEPPQCKDSTGKCGPPPPIDNGDITSFPLSVYAPASSVEYQCQNLYQLEGNKRITCRNGQWSEPPKCLHPCVISREIMENYNIALRWTAKQKLYSRTGESVEFVCKRGYRLSSRSHTLRTTCWDGKLEYPTCAKR
partner: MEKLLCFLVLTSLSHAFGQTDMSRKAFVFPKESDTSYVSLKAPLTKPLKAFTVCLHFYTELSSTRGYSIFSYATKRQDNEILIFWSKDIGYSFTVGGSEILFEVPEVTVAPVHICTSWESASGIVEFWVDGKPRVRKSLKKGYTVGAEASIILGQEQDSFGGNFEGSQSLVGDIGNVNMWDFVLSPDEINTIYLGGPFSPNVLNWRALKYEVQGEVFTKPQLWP
B2: Complement factor H-related protein 4 (Homo sapiens), Q92496-1 (parent)
chain: MLLLINVILTLWVSCANGQEVKPCDFPEIQHGGLYYKSLRRLYFPAAAGQSYSYYCDQNFVTPSGSYWDYIHCTQDGWSPTVPCLRTCSKSDVEIENGFISESSSIYILNEETQYNCKPGYATAEGNSSGSITCLQNGWSTQPICIKFCDMPVFENSRAKSNGMWFKLHDTLDYECYDGYESSYGNTTDSIVCGEDGWSHLPTCYNSSENCGPPPPISNGDTTSFPQKVYLPWSRVEYQCQSYYELQGSKYVTCSNGDWSEPPRCISMKPCEFPEIQHGHLYYENTRRPYFPVATGQSYSYYCDQNFVTPSGSYWDYIHCTQDGWLPTVPCLRTCSKSDIEIENGFISESSSIYILNKEIQYKCKPGYATADGNSSGSITCLQNGWSAQPICIKFCDMPVFENSRAKSNGMRFKLHDTLDYECYDGYEISYGNTTGSIVCGEDGWSHFPTCYNSSEKCGPPPPISNGDTTSFLLKVYVPQSRVEYQCQSYYELQGSNYVTCSNGEWSEPPRCIHPCIITEENMNKNNIQLKGKSDIKYYAKTGDTIEFMCKLGYNANTSVLSFQAVCREGIVEYPRCE
partner: B1 partner

The variants in the first experiment derive from B1. The settings on record: with crp_human CRP.
On to E338K, for which the “effect of a mutation on the interaction” value was “disrupting interaction strength”.

Variants of B2 are the subject of another experiment. To be noted: with crp_human CRP.
Turning to MLLLINVILTLWVSCANGQEVKPCDFPEIQHGGLYYESLRRLYFPAAAGQSYSYYCDQNFVTPSGSYWDYIHCTQDGWSPTVPCLRTCSKSDVEIENGFISESSSIYILNEETQYNCKPGYATAEGNSSGSITCLQNGWSTQPICIKFCDMPVFENSRAKSNGMWFKLHDTLDYECYDGYESSYGNTTDSIVCGEDGWSHLPTCYNSSENCGPPPPISNGDTTSFPQKVYLPWSRVEYQCQSYYELQGSKYVTCSNGDWSEPPRCISMKPCEFPEIQHGHLYYENTRRPYFPVATGQSYSYYCDQNFVTPSGSYWDYIHCTQDGWLPTVPCLRTCSKSDIEIENGFISESSSIYILNKEIQYKCKPGYATADGNSSGSITCLQNGWSAQPICIKFCDMPVFENSRAKSNGMRFKLHDTLDYECYDGYEISYGNTTGSIVCGEDGWSHFPTCYNSSEKCGPPPPISNGDTTSFLLKVYVPQSRVEYQCQSYYELQGSNYVTCSNGEWSEPPRCIHPCIITEENMNKNNIQLKGKSDIKYYAKTGDTIEFMCKLGYNANTSVLSFQAVCREGIVEYPRCE [K37E], the “effect of a mutation on the interaction” value was “decreasing interaction strength”.

The variants in the next experiment derive from B2. To be noted: with crp_human CRP. This is another data set of the same source.
On to MLLLINVILTLWVSCANGQEVKPCDFPEIQHGGLYYKAARRLYFPAAAGQSYSYYCDQNFVTPSGSYWDYIHCTQDGWSPTVPCLRTCSKSDVEIENGFISESSSIYILNEETQYNCKPGYATAEGNSSGSITCLQNGWSTQPICIKFCDMPVFENSRAKSNGMWFKLHDTLDYECYDGYESSYGNTTDSIVCGEDGWSHLPTCYNSSENCGPPPPISNGDTTSFPQKVYLPWSRVEYQCQSYYELQGSKYVTCSNGDWSEPPRCISMKPCEFPEIQHGHLYYENTRRPYFPVATGQSYSYYCDQNFVTPSGSYWDYIHCTQDGWLPTVPCLRTCSKSDIEIENGFISESSSIYILNKEIQYKCKPGYATADGNSSGSITCLQNGWSAQPICIKFCDMPVFENSRAKSNGMRFKLHDTLDYECYDGYEISYGNTTGSIVCGEDGWSHFPTCYNSSEKCGPPPPISNGDTTSFLLKVYVPQSRVEYQCQSYYELQGSNYVTCSNGEWSEPPRCIHPCIITEENMNKNNIQLKGKSDIKYYAKTGDTIEFMCKLGYNANTSVLSFQAVCREGIVEYPRCE [S38A;L39A], for which the “effect of a mutation on the interaction” value is reported as “disrupting interaction strength”.

MLLLINVILTLWVSCANGQEVKPCDFPEIQHGGLYYKSARRLYFPAAAGQSYSYYCDQNFVTPSGSYWDYIHCTQDGWSPTVPCLRTCSKSDVEIENGFISESSSIYILNEETQYNCKPGYATAEGNSSGSITCLQNGWSTQPICIKFCDMPVFENSRAKSNGMWFKLHDTLDYECYDGYESSYGNTTDSIVCGEDGWSHLPTCYNSSENCGPPPPISNGDTTSFPQKVYLPWSRVEYQCQSYYELQGSKYVTCSNGDWSEPPRCISMKPCEFPEIQHGHLYYENTRRPYFPVATGQSYSYYCDQNFVTPSGSYWDYIHCTQDGWLPTVPCLRTCSKSDIEIENGFISESSSIYILNKEIQYKCKPGYATADGNSSGSITCLQNGWSAQPICIKFCDMPVFENSRAKSNGMRFKLHDTLDYECYDGYEISYGNTTGSIVCGEDGWSHFPTCYNSSEKCGPPPPISNGDTTSFLLKVYVPQSRVEYQCQSYYELQGSNYVTCSNGEWSEPPRCIHPCIITEENMNKNNIQLKGKSDIKYYAKTGDTIEFMCKLGYNANTSVLSFQAVCREGIVEYPRCE [L39A]: the “effect of a mutation on the interaction” value is “decreasing interaction strength”.

For the variant MLLLINVILTLWVSCANGQEVKPCDFPEIQHGGLYYKSLAALYFPAAAGQSYSYYCDQNFVTPSGSYWDYIHCTQDGWSPTVPCLRTCSKSDVEIENGFISESSSIYILNEETQYNCKPGYATAEGNSSGSITCLQNGWSTQPICIKFCDMPVFENSRAKSNGMWFKLHDTLDYECYDGYESSYGNTTDSIVCGEDGWSHLPTCYNSSENCGPPPPISNGDTTSFPQKVYLPWSRVEYQCQSYYELQGSKYVTCSNGDWSEPPRCISMKPCEFPEIQHGHLYYENTRRPYFPVATGQSYSYYCDQNFVTPSGSYWDYIHCTQDGWLPTVPCLRTCSKSDIEIENGFISESSSIYILNKEIQYKCKPGYATADGNSSGSITCLQNGWSAQPICIKFCDMPVFENSRAKSNGMRFKLHDTLDYECYDGYEISYGNTTGSIVCGEDGWSHFPTCYNSSEKCGPPPPISNGDTTSFLLKVYVPQSRVEYQCQSYYELQGSNYVTCSNGEWSEPPRCIHPCIITEENMNKNNIQLKGKSDIKYYAKTGDTIEFMCKLGYNANTSVLSFQAVCREGIVEYPRCE [R40A;R41A], the “effect of a mutation on the interaction” value was “decreasing interaction strength”.

Variants of B2 are the subject of a further experiment. To be noted: with crp_human CRP. This is another data set of the same source.
With MLLLINVILTLWVSCANGQEVKPCDFPEIQHGGLYYKAARRLYFPAAAGQSYSYYCDQNFVTPSGSYWDYIHCTQDGWSPTVPCLRTCSKSDVEIENGFISESSSIYILNEETQYNCKPGYATAEGNSSGSITCLQNGWSTQPICIKFCDMPVFENSRAKSNGMWFKLHDTLDYECYDGYESSYGNTTDSIVCGEDGWSHLPTCYNSSENCGPPPPISNGDTTSFPQKVYLPWSRVEYQCQSYYELQGSKYVTCSNGDWSEPPRCISMKPCEFPEIQHGHLYYENTRRPYFPVATGQSYSYYCDQNFVTPSGSYWDYIHCTQDGWLPTVPCLRTCSKSDIEIENGFISESSSIYILNKEIQYKCKPGYATADGNSSGSITCLQNGWSAQPICIKFCDMPVFENSRAKSNGMRFKLHDTLDYECYDGYEISYGNTTGSIVCGEDGWSHFPTCYNSSEKCGPPPPISNGDTTSFLLKVYVPQSRVEYQCQSYYELQGSNYVTCSNGEWSEPPRCIHPCIITEENMNKNNIQLKGKSDIKYYAKTGDTIEFMCKLGYNANTSVLSFQAVCREGIVEYPRCE [S38A;L39A], the “effect of a mutation on the interaction” value is “decreasing interaction strength”.

MLLLINVILTLWVSCANGQEVKPCDFPEIQHGGLYYKSARRLYFPAAAGQSYSYYCDQNFVTPSGSYWDYIHCTQDGWSPTVPCLRTCSKSDVEIENGFISESSSIYILNEETQYNCKPGYATAEGNSSGSITCLQNGWSTQPICIKFCDMPVFENSRAKSNGMWFKLHDTLDYECYDGYESSYGNTTDSIVCGEDGWSHLPTCYNSSENCGPPPPISNGDTTSFPQKVYLPWSRVEYQCQSYYELQGSKYVTCSNGDWSEPPRCISMKPCEFPEIQHGHLYYENTRRPYFPVATGQSYSYYCDQNFVTPSGSYWDYIHCTQDGWLPTVPCLRTCSKSDIEIENGFISESSSIYILNKEIQYKCKPGYATADGNSSGSITCLQNGWSAQPICIKFCDMPVFENSRAKSNGMRFKLHDTLDYECYDGYEISYGNTTGSIVCGEDGWSHFPTCYNSSEKCGPPPPISNGDTTSFLLKVYVPQSRVEYQCQSYYELQGSNYVTCSNGEWSEPPRCIHPCIITEENMNKNNIQLKGKSDIKYYAKTGDTIEFMCKLGYNANTSVLSFQAVCREGIVEYPRCE [L39A]: the “effect of a mutation on the interaction” value was “with no effect”.

MLLLINVILTLWVSCANGQEVKPCDFPEIQHGGLYYKSLAALYFPAAAGQSYSYYCDQNFVTPSGSYWDYIHCTQDGWSPTVPCLRTCSKSDVEIENGFISESSSIYILNEETQYNCKPGYATAEGNSSGSITCLQNGWSTQPICIKFCDMPVFENSRAKSNGMWFKLHDTLDYECYDGYESSYGNTTDSIVCGEDGWSHLPTCYNSSENCGPPPPISNGDTTSFPQKVYLPWSRVEYQCQSYYELQGSKYVTCSNGDWSEPPRCISMKPCEFPEIQHGHLYYENTRRPYFPVATGQSYSYYCDQNFVTPSGSYWDYIHCTQDGWLPTVPCLRTCSKSDIEIENGFISESSSIYILNKEIQYKCKPGYATADGNSSGSITCLQNGWSAQPICIKFCDMPVFENSRAKSNGMRFKLHDTLDYECYDGYEISYGNTTGSIVCGEDGWSHFPTCYNSSEKCGPPPPISNGDTTSFLLKVYVPQSRVEYQCQSYYELQGSNYVTCSNGEWSEPPRCIHPCIITEENMNKNNIQLKGKSDIKYYAKTGDTIEFMCKLGYNANTSVLSFQAVCREGIVEYPRCE [R40A;R41A]: the “effect of a mutation on the interaction” value is “disrupting interaction strength”.

The variants in a further experiment derive from B2. To be noted: with crp_human CRP. The source holds these as a separate data set.
MLLLINVILTLWVSCANGQEVKPCDFPEIQHGGLYYKSLRRLYFPAAAGQSYSYYCDQNFVTPSGSYWDYIHCTQDGWSPTVPCLRTCSKSDVEIENGFISESSSIYILNEETQYNCKPGYATAEGNSSGSITCLQNGWSTQPICIKFCDMPVFENSRAKSNGMWFKLHDTLDYECYDGYESSYGNTTDSIVCGEDGWSHLPTCYNSSENCGPPPPISNGDTTSFPQKVYLPWSRVEYQCQSYYELQGSKYVTCSNGDWSEPPRCISMKPCEFPEIQHGHLYYKNTRRPYFPVATGQSYSYYCDQNFVTPSGSYWDYIHCTQDGWLPTVPCLRTCSKSDIEIENGFISESSSIYILNKEIQYKCKPGYATADGNSSGSITCLQNGWSAQPICIKFCDMPVFENSRAKSNGMRFKLHDTLDYECYDGYEISYGNTTGSIVCGEDGWSHFPTCYNSSEKCGPPPPISNGDTTSFLLKVYVPQSRVEYQCQSYYELQGSNYVTCSNGEWSEPPRCIHPCIITEENMNKNNIQLKGKSDIKYYAKTGDTIEFMCKLGYNANTSVLSFQAVCREGIVEYPRCE [E284K]: the “effect of a mutation on the interaction” value is recorded as “increasing interaction strength”.

These data come from IntAct's records for PubMed 20042240.
